The results in this text go back to PMC10028610, “A Cold-Active Flavin-Dependent Monooxygenase from Janthinobacterium svalbardensis Unlocks Applications of Baeyer–Villiger Monooxygenases at Low Temperature” (ACS Catalysis, 2023).

Data set [1] has as its target type II flavin-containing monooxygenase from Janthinobacterium svalbardensis (Janthinobacterium svalbardensis PAMC27463). Put plainly: crystal structure; sitting-drop vapor diffusion in the cold room (4-8 °C); 16 mg/mL JsFMO, glycerol 20%, PEG 8000 13%, 100 mM Bis-Tris pH 6.5; four protomers forming two dimers in the asymmetric unit; FAD bound, no NADP+.
Data set [2] has the same target. Put plainly: SEC; size exclusion chromatography of purified JsFMO, with a calibration curve (Figure S2). For orientation: SEC sorts molecules by how far they enter the pores of the column.
Substrate in data set [3]: O=C1CC2C=CCC12
Put plainly: purified protein. Type of data set: biochemical, Janthinobacterium svalbardense. The settings on record: 0.25 mM NADPH, 0.25-20 mM 1a, 100 mM Tris-HCl pH 7.5, 500 mM NaCl, 10% glycerol, 1 mM DTT, 5 μM FAD, room temperature.

Substrate in data set [4]: NC(=O)C1=CN([C@@H]2O[C@H](COP(=O)(O)OP(=O)(O)OC[C@H]3O[C@@H](n4cnc5c(N)ncnc54)[C@H](OP(=O)(O)O)[C@@H]3O)[C@@H](O)[C@H]2O)C=CC1
Put plainly: purified protein. It is filed as biochemical, Janthinobacterium svalbardense. The settings on record: 100 mM Tris-HCl pH 7.5, 500 mM NaCl, 10% glycerol, 1 mM DTT, 5 μM FAD, room temperature, co-substrate concentration not given.

Substrate in data set [5]: NC(=O)C1=CN([C@@H]2O[C@H](COP(=O)(O)OP(=O)(O)OC[C@H]3O[C@@H](n4cnc5c(N)ncnc54)[C@H](O)[C@@H]3O)[C@@H](O)[C@H]2O)C=CC1
Put plainly: purified protein. It is filed as biochemical, Janthinobacterium svalbardense. The settings on record: 100 mM Tris-HCl pH 7.5, 500 mM NaCl, 10% glycerol, 1 mM DTT, 5 μM FAD, room temperature, co-substrate concentration not given.

Take “type II flavin-containing monooxygenase from Janthinobacterium svalbardensis (enzyme)”: the stoichiometry N in data set [1] and in data set [2] was 2 each time.

B1: JsFMO (Janthinobacterium svalbardense) (protein)
chain: MQTDSNPHDLAVAGILEQLEGCLRASDSTGAAQLFEPDGYWRDLVLFTWNLKTLEGREQIAAMLAAQLGAVQPVSIRIADGEHAVEAGGVLQSWITVETNVARGVGFIRIRDGKIWTLLTTMSELKGFEEAKGGRRPMGAEHGARTDRSSWLEQREQEAKELGYARQPYCVIIGGGQGGIALGARLRQLNVPTIIIEKNARPGDSWRKRYKSLCLHDPVWYDHMPYIPFPDNWPVFTPKDKVGDWLEMYTKVMELNYWGSTSCESASFDAASGEWTVQVLRDGQPVTLKPKQLVLATGMSGKANMPKFKGMDVFQGEQQHSSQHPGPDAYAGKKVVVVGANNSAHDICAALWEAGVDVTMVQRSSTHIVKSDSLMDLALGDLYSERALAAGMTTNKADLTFASIPYKILANFQKPVFKAIRERDADFYARLEERGFMLDFGDDDSGLFMKYLRRGSGYYIDVGASELVAEGKIKLKSGVGVQELKSHSIVLSDGTELPADLVVYATGYGSMNGWAADLISPEVANKVGKVWGLGSATTKDPGPWEGEQRNMWKPTQQQALWFHGGNLHQSRHYSQYLSLQLKARMEGLNTPVYGQQEVHHLS
notes: full-length, codon-optimized in pET-28a(+)-TEV, E. coli ArcticExpress (DE3), C-terminal His-tag (stated for crystal structure); homodimer; SnoaL-like N-terminal domain, C-terminal helix residues 567-586
Take B1: the values for the Km in the data set “purified protein [3]”, in “purified protein [4]” and in “purified protein [5]” were 1050 ± 230 µM, 14.4 ± 2.5 µM and 78.5 ± 7.5 µM, respectively. Also, the kcat in “purified protein [3]” came out at 0.29 ± 0.01 s^–1; in the data set “purified protein [4]”, 0.21 ± 0.1 s^–1; in the data set “purified protein [5]” it was 0.23 ± 0.1 s^–1.
